From patent publication US20250027114

What was measured:
[1] = tested on: T1, N1-21-ABE8e (Neisseria meningitidis); experiment: cell_activity; conditions: E. coli ABE-PPA
T1 sequence: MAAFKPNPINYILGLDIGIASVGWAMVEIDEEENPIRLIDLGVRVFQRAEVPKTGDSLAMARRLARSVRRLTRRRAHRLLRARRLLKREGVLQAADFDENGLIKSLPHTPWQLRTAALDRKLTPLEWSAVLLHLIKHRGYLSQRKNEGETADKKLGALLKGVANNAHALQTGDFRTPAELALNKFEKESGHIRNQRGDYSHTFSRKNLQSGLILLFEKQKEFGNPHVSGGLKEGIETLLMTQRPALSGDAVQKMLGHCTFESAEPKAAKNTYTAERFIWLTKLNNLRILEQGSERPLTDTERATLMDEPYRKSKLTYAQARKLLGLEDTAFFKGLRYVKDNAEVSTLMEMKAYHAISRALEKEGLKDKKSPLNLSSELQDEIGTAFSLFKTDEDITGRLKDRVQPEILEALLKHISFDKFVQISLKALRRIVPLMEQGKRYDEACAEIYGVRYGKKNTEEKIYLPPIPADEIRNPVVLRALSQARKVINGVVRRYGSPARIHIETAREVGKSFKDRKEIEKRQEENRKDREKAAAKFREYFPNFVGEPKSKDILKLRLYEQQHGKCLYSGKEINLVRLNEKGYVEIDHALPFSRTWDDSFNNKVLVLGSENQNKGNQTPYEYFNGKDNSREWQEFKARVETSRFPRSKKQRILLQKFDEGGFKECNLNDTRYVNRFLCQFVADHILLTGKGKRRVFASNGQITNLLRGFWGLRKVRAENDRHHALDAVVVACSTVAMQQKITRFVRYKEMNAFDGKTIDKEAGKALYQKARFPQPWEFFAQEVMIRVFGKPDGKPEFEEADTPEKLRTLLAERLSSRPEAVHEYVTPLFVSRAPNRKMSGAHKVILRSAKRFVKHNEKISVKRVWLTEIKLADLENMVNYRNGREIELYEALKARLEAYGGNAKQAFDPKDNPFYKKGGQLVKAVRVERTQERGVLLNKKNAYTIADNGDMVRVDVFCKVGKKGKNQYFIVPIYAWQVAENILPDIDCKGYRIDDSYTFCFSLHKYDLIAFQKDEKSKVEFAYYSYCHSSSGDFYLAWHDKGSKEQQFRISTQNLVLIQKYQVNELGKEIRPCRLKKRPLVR

[2] = tested on: T2, eNme2-C-dABE8e (Neisseria meningitidis); experiment: cell_activity; conditions: all N4CN PAMs, E. coli ABE-PPA
T2 sequence: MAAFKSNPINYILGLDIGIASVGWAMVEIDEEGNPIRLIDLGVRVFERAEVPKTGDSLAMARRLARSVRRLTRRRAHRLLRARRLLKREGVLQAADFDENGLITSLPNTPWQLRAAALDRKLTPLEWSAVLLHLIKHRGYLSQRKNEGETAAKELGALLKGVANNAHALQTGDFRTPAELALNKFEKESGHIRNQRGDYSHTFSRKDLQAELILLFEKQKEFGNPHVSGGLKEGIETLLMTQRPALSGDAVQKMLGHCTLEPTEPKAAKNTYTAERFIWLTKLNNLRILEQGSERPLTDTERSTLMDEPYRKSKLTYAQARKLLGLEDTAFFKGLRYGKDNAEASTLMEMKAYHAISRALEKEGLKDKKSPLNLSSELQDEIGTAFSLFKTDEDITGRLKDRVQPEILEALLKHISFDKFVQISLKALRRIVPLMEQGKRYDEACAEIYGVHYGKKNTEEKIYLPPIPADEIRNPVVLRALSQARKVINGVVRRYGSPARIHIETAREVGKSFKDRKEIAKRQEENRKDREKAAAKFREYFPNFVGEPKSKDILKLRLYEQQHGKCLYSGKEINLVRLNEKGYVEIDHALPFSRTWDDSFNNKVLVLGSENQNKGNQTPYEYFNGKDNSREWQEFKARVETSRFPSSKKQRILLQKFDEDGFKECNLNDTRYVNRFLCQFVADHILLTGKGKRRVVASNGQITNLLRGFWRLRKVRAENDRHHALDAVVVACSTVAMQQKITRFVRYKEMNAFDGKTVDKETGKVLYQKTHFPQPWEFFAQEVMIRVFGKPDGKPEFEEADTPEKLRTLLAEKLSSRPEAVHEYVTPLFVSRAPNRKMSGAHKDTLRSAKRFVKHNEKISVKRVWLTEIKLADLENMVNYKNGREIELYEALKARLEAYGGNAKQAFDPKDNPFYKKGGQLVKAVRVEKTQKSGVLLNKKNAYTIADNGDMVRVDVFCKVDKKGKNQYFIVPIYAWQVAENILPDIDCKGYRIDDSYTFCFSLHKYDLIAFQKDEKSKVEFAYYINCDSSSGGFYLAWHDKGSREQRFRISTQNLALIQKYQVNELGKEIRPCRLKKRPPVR

## AUGGCCCAGACUGAGCACGUGAGGUUGUAGCUCCCUUUCUCAUUUCGGAAACGAAAUGAGAACCGUUGCUACAAUAAGGCCGUCUGAAAAGAUGUGCCGCAACGCUCUGCCCCUUAAAGCUUCUGCUUUAAGGGGCAUCGUUUA / ATGGCCCAGACTGAGCACGTGA / TCACGTGCTCAGTCTGGGCCAT [ABE-PPA sgRNA ; ABE-PPA protospacer library target]
[1]; PAM N3CCC (counterselected), virtually eliminated
  activity (% A-to-G conversion): 4.8
[1]; PAM N3TTG, 64% average on N4GN PAMs
  activity (% A-to-G conversion): 67
[2]
  activity (% A-to-G conversion): > 80
